One block for each binder: values may come before it.
B1: VHH R3VQ (VHH)
VHH: EVQLQASGGGLVQTGDSLRLSCADSGSTFRNYNIGWFRQTPGQAREFVAAVSRTGISTHVADSLQGRFTISRDNAKNTVYLQMNSLKPEDTAVYSCAAGRPGVGAVNRAMDYDYWGQGTQVTVSS
notes: Expressed with a His tag or a Strep tag; also called R3VQ(His)-NH2 1; R3VQ-NH2 1; not shown: 6-Histidine tag (pET23) or Strep tag (pASK IBA2) from the vector

What was measured:
Aβ fragment 29-40 = target: T1, Aβ fragment 29-40 (human); assay: competition ELISA with soluble Aβ fragments
T1 peptide: GAIIGLMVGGVV
Description: (§1) The binding affinity of VHHs was determined as previously described (Friguet B. et al., 1985, Immunol Methods, 77:305-19). Briefly, various concentrations of Aβ peptides (A13 fragments 1-16, 10-20, 15-25, 22-35 and 29-40) were incubated in solution overnight at 4° C. with a known quantity of VHH until equilibrium was reached. The VHH concentration used was determined by preliminary ELISA calibrations. Each mixture (100 μl) was transferred to a well of a microtiter plate previously coated with antigen and was incubated for 20 min at 4° C. The plates were washed with buffer 0.1% Tween 20 in PBS and bound VHHs were detected by adding beta-galactosidase-conjugated goat anti-rabbit Igs (Biosys, Compiegne, France) and 4-methylumbelliferyl […] (Sigma). Fluorescence was read (Fluoroskan, Labsystem, Finland) at 460 nm, after excitation at 355 nm. KD was estimated from the slope of the regression curve obtained by plotting the reciprocal of the fraction of bound antibody versus the reciprocal of the molar concentration of antigen.

Aβ fragment 1-16 = target: T2, Aβ fragment 1-16 (human); assay: competition ELISA with soluble Aβ fragments
T2 construct: also called Aβ1-16; Aβ16
T2 peptide: DAEFRHDSGYEVHHQK
Description: as §1

A-beta 42 peptide (Aβ42) = target: T3, A-beta 42 peptide (Aβ42) (human); assay: competition ELISA in solution (Friguet method)
T3 construct: Synthetic peptide (Bachem); incubated to give the fibrillar form for immunisation; also called Aβ1-42; fibrillar synthetic Aβ42 peptide
T3 sequence (peptide, as listed by the source): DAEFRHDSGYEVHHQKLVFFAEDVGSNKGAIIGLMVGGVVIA
Description: as §1

A-beta 40 (Aβ40) = target: T4, A-beta 40 (Aβ40) (human); assay: ELISA on biotinylated Aβ40 (or Aβ42)
T4 construct: ELISA methods say 'A-beta 40 or A-beta 42 (preferably A-beta 40)'; also called Aβ1-40; biotinylated A-beta 40
T4 sequence (peptide, as listed by the source): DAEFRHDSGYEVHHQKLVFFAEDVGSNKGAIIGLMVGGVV

VHH R3VQ = target: B1; assay: competition ELISA, soluble Aβ fragment against antigen-coated plate
Description: as §1

Binder: B1
- binding result (Aβ fragment 29-40): no binding
- binding result (Aβ fragment 1-16): no binding
- Kd (A-beta 42 peptide (Aβ42)): 17 nM

- binding in ELISA compared to the original VHH 1 (A-beta 40 (Aβ40)): ~10%
B2: R3VQ(His)-N-(DOTA/Gd) conjugate 2c (VHH)
VHH: EVQLQASGGGLVQTGDSLRLSCADSGSTFRNYNIGWFRQTPGQAREFVAAVSRTGISTHVADSLQGRFTISRDNAKNTVYLQMNSLKPEDTAVYSCAAGRPGVGAVNRAMDYDYWGQGTQVTVSS
modifications: DOTA/Gd randomly distributed on lysine residues; average Gd/protein (1) 2 (3)
notes: Non-site-specific conjugate; not shown: 6-Histidine tag from pET23

- binding in ELISA compared to the original VHH 1 (A-beta 40 (Aβ40)): ~10%
B3: R3VQ(His)-N-(DOTA/Gd) conjugate 2d (VHH)
VHH: EVQLQASGGGLVQTGDSLRLSCADSGSTFRNYNIGWFRQTPGQAREFVAAVSRTGISTHVADSLQGRFTISRDNAKNTVYLQMNSLKPEDTAVYSCAAGRPGVGAVNRAMDYDYWGQGTQVTVSS
modifications: DOTA/Gd randomly distributed on lysine residues; average Gd/protein (1) 2 (3)
notes: as for B2

- IC50 (VHH R3VQ): 16 nM
B4: Aβ fragment 16-35 (peptide)
peptide: KLVFFAEDVGSNKGAIIGLM
notes: this fragment is not in the list of fragments tested (1-16, 10-20, 15-25, 22-35, 29-40); also called AP 16-35

Source: patent US20160347831A1 (F HOFFMAN LA ROCHE, published 2016)
